Laboratory results as given in patent US20220411487A1 (Regeneron, published 2022).
Residue numbers refer to the chain shown, from its start. Names may count otherwise. One block for each binder: values may come before it.

Columns and labels:
Experiment in all cases: cell-based or functional assay
[1] = biological target: T1, full length human TMPRSS6 with a C-terminal triple myc tag on HEK293.hHJV cells (HEK293.hHJV/3xMyc.hTMPRSS6) (human, UniProt Q8IU80 1-811)
T1 sequence: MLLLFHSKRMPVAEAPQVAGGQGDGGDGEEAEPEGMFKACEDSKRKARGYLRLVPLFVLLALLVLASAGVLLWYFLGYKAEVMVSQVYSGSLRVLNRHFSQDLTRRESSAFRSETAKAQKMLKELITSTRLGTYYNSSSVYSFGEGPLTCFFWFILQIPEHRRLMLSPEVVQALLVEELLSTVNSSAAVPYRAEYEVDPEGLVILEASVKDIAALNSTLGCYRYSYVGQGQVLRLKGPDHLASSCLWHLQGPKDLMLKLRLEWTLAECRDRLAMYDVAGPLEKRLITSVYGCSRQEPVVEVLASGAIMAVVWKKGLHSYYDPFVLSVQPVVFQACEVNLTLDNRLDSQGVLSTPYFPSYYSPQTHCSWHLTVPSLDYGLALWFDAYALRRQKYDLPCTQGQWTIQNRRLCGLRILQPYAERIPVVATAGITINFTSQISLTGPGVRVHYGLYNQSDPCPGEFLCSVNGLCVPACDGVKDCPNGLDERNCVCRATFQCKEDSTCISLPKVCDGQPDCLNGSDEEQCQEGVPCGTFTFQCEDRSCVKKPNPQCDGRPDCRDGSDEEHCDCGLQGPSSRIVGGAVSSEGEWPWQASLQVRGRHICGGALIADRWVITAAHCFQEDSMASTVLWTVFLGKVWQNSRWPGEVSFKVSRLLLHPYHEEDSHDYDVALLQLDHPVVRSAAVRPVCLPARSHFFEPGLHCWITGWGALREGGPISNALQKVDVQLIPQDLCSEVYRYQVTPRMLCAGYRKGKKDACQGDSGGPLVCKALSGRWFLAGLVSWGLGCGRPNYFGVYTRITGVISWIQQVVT

[2] = biological target: T1, full length human TMPRSS6 with a …; remark: listed apart in the source
[3] = biological target: T2, full-length mouse TMPRSS6 with a C-terminal triple myc tag on HEK293.hHJV cells (HEK293.hHJV/3xMyc.mTMPRSS6) (mouse, UniProt Q9DBI0 1-811)
T2 sequence: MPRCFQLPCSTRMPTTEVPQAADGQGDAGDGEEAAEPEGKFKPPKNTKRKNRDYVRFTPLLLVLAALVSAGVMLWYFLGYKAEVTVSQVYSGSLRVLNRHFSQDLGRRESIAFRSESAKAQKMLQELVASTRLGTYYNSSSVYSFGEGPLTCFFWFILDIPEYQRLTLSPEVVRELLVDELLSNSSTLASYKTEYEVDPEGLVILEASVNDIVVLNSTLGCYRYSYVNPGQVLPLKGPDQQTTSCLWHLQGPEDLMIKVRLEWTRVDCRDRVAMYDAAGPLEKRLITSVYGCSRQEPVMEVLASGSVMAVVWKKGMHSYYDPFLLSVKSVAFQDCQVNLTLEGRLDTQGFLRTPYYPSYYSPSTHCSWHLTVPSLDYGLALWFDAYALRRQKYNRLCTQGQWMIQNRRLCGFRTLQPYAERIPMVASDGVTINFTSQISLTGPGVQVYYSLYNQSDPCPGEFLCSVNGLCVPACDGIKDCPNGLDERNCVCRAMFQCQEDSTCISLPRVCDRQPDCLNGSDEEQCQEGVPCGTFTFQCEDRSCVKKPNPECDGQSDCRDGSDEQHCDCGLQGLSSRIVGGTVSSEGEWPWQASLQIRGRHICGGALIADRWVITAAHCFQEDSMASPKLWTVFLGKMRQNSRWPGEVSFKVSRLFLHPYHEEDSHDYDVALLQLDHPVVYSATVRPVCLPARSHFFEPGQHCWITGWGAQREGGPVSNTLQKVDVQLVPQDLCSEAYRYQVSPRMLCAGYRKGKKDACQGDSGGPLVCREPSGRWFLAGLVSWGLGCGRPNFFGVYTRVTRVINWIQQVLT

B1: REGN7977 (antibody, V domains shown)
VH: EVQLVESGGGLVKPGGSLRVSCAASGVTFSNVWMSWVRQVPGKGLEWVGRIKSKTDGGTTDYAAPVKGRFTISKDDSKNTLFLQMNSLKTEDTAVYYCTTETGDFWSGYYPRFQHWGQGTLVTVSS
VL: DIQMTQSPSSLSASVGDRVTITCRASQYISTYLNWYQQKPGKAPSLLIYAASSLQSGVPSRFSGSGSGTDFTLTISSLQPEDFASYSCQQSYSTPPYTFGQGTKLEIKR
notes: fully human; human IgG4 Fc with hinge S108P; also called mAb41465
- IC50, soluble hHJV release (ELISA) [1]: 0.127 nM
- Inhibition (%) of soluble hHJV release (ELISA) [1]: > 99%
- Geometric Mean Fluorescence Intensity of cell surface hHJV, 50 nM mAb [2]: 49000
- Median Fluorescence Intensity of cell surface hHJV, 50 nM mAb [2]: 63800
- Geometric Mean Fluorescence Intensity of cell surface hHJV, 50 nM mAb [3]: 9130
- Median Fluorescence Intensity of cell surface hHJV, 50 nM mAb [3]: 7030

B3: REGN7969 (antibody, human IgG4 S228P, kappa, V domains shown)
VH: QVQLVESGGGVVQPGRSLRLSCAASGFTFNNYGMHWVRQAPGKGLEWVAIISYDGSNEYYSDSVKGRFTISRDNSKNTLYLQMNSLRAEDTAVYYCARDQDYGGNLFHYWGQGTLVTVSS
VL: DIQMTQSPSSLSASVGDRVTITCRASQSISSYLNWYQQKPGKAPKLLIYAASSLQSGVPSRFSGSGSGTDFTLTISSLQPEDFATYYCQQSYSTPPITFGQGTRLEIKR
notes: fully human; human IgG4 Fc with hinge S108P; also called mAb37746
- IC50, soluble hHJV release (ELISA) [1]: 0.0712 nM
- Inhibition (%) of soluble hHJV release (ELISA) [1]: > 99%
- Geometric Mean Fluorescence Intensity of cell surface hHJV, 50 nM mAb [2]: 47900
- Median Fluorescence Intensity of cell surface hHJV, 50 nM mAb [2]: 67500
- Geometric Mean Fluorescence Intensity of cell surface hHJV, 50 nM mAb [3]: 8390
- Median Fluorescence Intensity of cell surface hHJV, 50 nM mAb [3]: 7810

B4: REGN7971 (antibody, human IgG4 S228P, kappa, V domains shown)
VH: B3 VH with N30S, N31T, E58D, S61L, S85N, R98K, D101G, H108A, Y109S
VL: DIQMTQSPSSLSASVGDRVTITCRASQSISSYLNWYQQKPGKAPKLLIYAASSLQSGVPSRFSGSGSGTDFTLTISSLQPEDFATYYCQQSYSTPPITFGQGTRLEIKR
notes: fully human; human IgG4 Fc with hinge S108P; also called mAb37763
- IC50, soluble hHJV release (ELISA) [1]: 0.0774 nM
- Inhibition (%) of soluble hHJV release (ELISA) [1]: 89.9%
- Geometric Mean Fluorescence Intensity of cell surface hHJV, 50 nM mAb [2]: 61800
- Median Fluorescence Intensity of cell surface hHJV, 50 nM mAb [2]: 84400
- Geometric Mean Fluorescence Intensity of cell surface hHJV, 50 nM mAb [3]: 8230
- Median Fluorescence Intensity of cell surface hHJV, 50 nM mAb [3]: 7470

B6: REGN7974 (antibody, human IgG4 S228P, kappa, V domains shown)
VH: EVQLVESGGGLVQPGRSLRLSCIASGFNFGDYGMSWVRQAPGKGLEWVGFIRSKAYGGTTEYAASVKGRFTISRDDSKSIAYLQMNSLKTEDAAMYYCSRDYYDILTGYYGDYWGQGTLVTVSS
VL: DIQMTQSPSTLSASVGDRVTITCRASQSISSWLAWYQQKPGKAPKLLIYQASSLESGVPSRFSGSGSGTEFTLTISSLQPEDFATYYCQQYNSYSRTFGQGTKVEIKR
notes: fully human; human IgG4 Fc with hinge S108P; also called mAb41422
- IC50, soluble hHJV release (ELISA) [1]: 0.154 nM
- Inhibition (%) of soluble hHJV release (ELISA) [1]: > 99%
- Geometric Mean Fluorescence Intensity of cell surface hHJV, 50 nM mAb [2]: 40900
- Median Fluorescence Intensity of cell surface hHJV, 50 nM mAb [2]: 56700
- Geometric Mean Fluorescence Intensity of cell surface hHJV, 50 nM mAb [3]: 6960
- Median Fluorescence Intensity of cell surface hHJV, 50 nM mAb [3]: 6220

The remaining lines, values ahead:

- IC50, soluble hHJV release (ELISA) [1]: 0.149 nM
- Inhibition (%) of soluble hHJV release (ELISA) [1]: > 99%
- Geometric Mean Fluorescence Intensity of cell surface hHJV, 50 nM mAb [2]: 55500
- Median Fluorescence Intensity of cell surface hHJV, 50 nM mAb [2]: 77800
- Geometric Mean Fluorescence Intensity of cell surface hHJV, 50 nM mAb [3]: 19000
- Median Fluorescence Intensity of cell surface hHJV, 50 nM mAb [3]: 19400
B2: REGN8023 (antibody, human IgG4 S228P, kappa, V domains shown)
VH: EVQLVESGGGLVKPGGSLRISCAASGFIFVDYAMHWVRQAPGKGLEWVSGISWNSGSIGYADSVKGRFTISRDNAKKSLYLQMSGLRPEDTALYYCVKSGFYYVRSYFDNWGQGTLVTVSS
VL: DIVMTQSPLSLPVTPGEPASISCRSSQSLLDSDDGNTYLDWYLRKPGQSPQLLIYTLSYRASGVPDRFSGSGSGTDFTLKISRVEADDVGVYYCMQRIEFPLTFGGGTKVEIKR
notes: fully human; human IgG4 Fc with hinge S108P; also called mAb37699

- IC50, soluble hHJV release (ELISA) [1]: 0.102 nM
- Inhibition (%) of soluble hHJV release (ELISA) [1]: > 99%
- Geometric Mean Fluorescence Intensity of cell surface hHJV, 50 nM mAb [2]: 30700
- Median Fluorescence Intensity of cell surface hHJV, 50 nM mAb [2]: 40100
- Geometric Mean Fluorescence Intensity of cell surface hHJV, 50 nM mAb [3]: 23700
- Median Fluorescence Intensity of cell surface hHJV, 50 nM mAb [3]: 33600
B5: REGN7999 (antibody, human IgG4 S228P, kappa, V domains shown)
VH: EVQLVESGGGLVQPGGSLRLSCAASGFTFSSYAMTWVRQAPGKGLEWVSAISGSDTSTYYADSVKGRFTISRDNSKNTLFLQMNSLRAEDTAVYYCAKHQDYDFSYYYSAMDVWGQGTTVTVSS
VL: DIQMTQSPSSLSASVGDRVIITCRASQDFNSWLAWYQQKPGKAPKLLIYAASSLQSGVPSRFSGSGSGTDFTLTISSLQPEDFATYYCQQTDSFPFTFGPGTKVDIKR
notes: fully human; human IgG4 Fc with hinge S108P; also called mAb41450
